According to US20250051434A1:

Target: human IL-12 receptor (IL-12R) (human) (UniProt P42701)
Assay: cell-based or functional assay

Mean Fold Reduction (potency vs IL-12 WT by EC50; HEK-Blue IL-12 STAT4/SEAP reporter): 1 fold
Substance: mIL-12-Fc-wt (Fc fusion)
